For this assay, the target named is F-actin assembled from rabbit skeletal muscle G-actin (Oryctolagus cuniculus (Rabbit), UniProt P68135). Nature of the assay: F-actin co-sedimentation.

B1: GST-Swiprosin-1 fusion protein (wild type) (protein)
chain: MATDELATKLSRRLQMEGEGGGETPEQPGLNGAAAAAAGAPDEAAEALGSADCELSAKLLRRADLNQGIGEPQSPSRRVFNPYTEFKEFSRKQIKDMEKMFKQYDAGRDGFIDLMELKLMMEKLGAPQTHLGLKNMIKEVDEDFDSKLSFREFLLIFRKAAAGELQEDSGLCVLARLSEIDVSSEGVKGAKSFFEAKVQAINVSSRFEEEIKAEQEERKKQAEEMKQRKAAFKELQSTFK
As for B1, the binding result is “binds”.

The values above are taken from PMC3830201 (2013).
